These are literature values, as cited in paper PMC2706832.

Data set [1] addresses CCL14 9-74 (Homo sapiens) (UniProt Q16627). In words: competition with CCL5.
Data set [2] addresses CCL7 (Homo sapiens) (UniProt P80098).

Sequence of CCR1 (P32246 whole entry): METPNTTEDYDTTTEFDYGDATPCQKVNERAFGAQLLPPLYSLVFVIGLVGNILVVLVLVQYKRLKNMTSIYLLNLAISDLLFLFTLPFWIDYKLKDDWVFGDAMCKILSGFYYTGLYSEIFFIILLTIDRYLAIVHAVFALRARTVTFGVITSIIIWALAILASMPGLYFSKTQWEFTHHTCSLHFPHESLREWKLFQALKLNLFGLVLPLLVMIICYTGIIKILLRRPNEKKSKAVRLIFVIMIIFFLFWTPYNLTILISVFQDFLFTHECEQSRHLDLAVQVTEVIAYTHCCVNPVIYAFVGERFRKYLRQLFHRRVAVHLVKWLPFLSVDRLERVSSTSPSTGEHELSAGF
Sequence of CCL7 (Homo sapiens) (P80098 24-99): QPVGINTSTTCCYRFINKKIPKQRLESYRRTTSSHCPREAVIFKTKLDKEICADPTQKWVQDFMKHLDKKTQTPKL
Sequence of CCL14 9-74 (Homo sapiens) (Q16627 9-74): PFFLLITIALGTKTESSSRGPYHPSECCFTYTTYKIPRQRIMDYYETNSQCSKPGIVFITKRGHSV

By Ki is commonly meant a dissociation constant, usually derived from enzyme kinetics or from competition with a known ligand. As a reminder, the Kd is the constant that tells how readily two partners part at equilibrium. With CCR1 (from UniProt P32246), the Ki in data set [1] was 0.023 nM. In data set [2], the equilibrium dissociation constant (Kd) is 1 nM.
